In US20240200091A1, “USE OF PROTOPORPHYRINOGEN OXIDASE” (BEIJING DABEINONG BIOTECHNOLOGY CO., LTD., priority 2021, published 2024):

What was measured:
Format in all cases: in vivo
Settings in all cases: 7 DAT, number of plants of 24 per genotype, grades
[1] = tested on: Arabidopsis thaliana T1 plants; assay: oxyfluorfen tolerance of transgenic Arabidopsis thaliana T1 plants (spray, grade of pesticide damage)
Description: (§1) The transformed Arabidopsis thaliana T1 plants were initially selected using glufosinate herbicide. The Arabidopsis thaliana T1 plants (PPO1A) into which the PPO1A nucleotide sequence was introduced, the Arabidopsis thaliana T1 plants (PPO2A) into which the PPO2A nucleotide sequence was introduced, the Arabidopsis thaliana T1 plants (PPO3A) into which the PPO3A nucleotide sequence was introduced, the Arabidopsis thaliana T1 plants (PPO4A) into which the PPO4A nucleotide sequence was introduced, the Arabidopsis thaliana T1 plants (PPO5A) into which the PPO5A nucleotide sequence was introduced, the Arabidopsis thaliana T1 plants (PPO6A) into which the PPO6A nucleotide sequence was introduced, the Arabidopsis thaliana T1 plants (PPO7A) into which the PPO7A nucleotide sequence was introduced, the Arabidopsis thaliana T1 plants (PPO8A) into which the PPO8A nucleotide sequence was introduced, the Arabidopsis thaliana T1 plants (PPO9A) into which the PPO9A nucleotide sequence was introduced, the Arabidopsis thaliana T1 plants (PPO10A) into which the […] nucleotide sequence was introduced, the Arabidopsis thaliana T1 plants (PPO11A) into which the PPO11A nucleotide sequence was introduced, the Arabidopsis thaliana T1 plants (PPO12A) into which the PPO12A nucleotide sequence was introduced, the Arabidopsis thaliana T1 plants (PPO13A) into which the PPO13A nucleotide sequence was introduced, the Arabidopsis thaliana T1 plants (PPO14A) into which the PPO14A nucleotide sequence was introduced, the Arabidopsis thaliana T1 plants (PPO-ATA) into which the PPO-ATA nucleotide sequence was introduced, the Arabidopsis thaliana T1 plants (PPO-APA) into which the PPO-APA nucleotide sequence was introduced, the Arabidopsis thaliana T1 plants (control vector) into which the control vector was introduced, and the wild-type Arabidopsis thaliana plants (CK) (with 24 plants being included in each genotype) (18 days after sowing) were sprayed with oxyfluorfen at three concentrations (180 g ai/ha (one-fold field concentration, 1×), 720 g ai/ha (four-fold field concentration, 4×), and 0 g ai/ha (water, 0×)), saflufenacil at three concentrations (25 g ai/ha (one-fold field concentration, 1×), 100 g ai/ha (four-fold field concentration, 4×), and 0 g ai/ha (water, 0×)), flumioxazin at three concentrations (60 g ai/ha (one-fold field concentration, 1×), 240 g ai/ha (four-fold field concentration, 4×), and 0 g ai/ha (water, 0×), and sulfentrazone at three concentrations (450 g ai/ha (one-fold field concentration, 1×), 900 g ai/ha (two-fold field concentration, 2×), and 0 g ai/ha (water, 0×) to determine the tolerance of Arabidopsis thaliana to the herbicides. After 7 days of spraying (7 DAT), the damage level of each plant caused by the herbicide was evaluated according to the average of the damage levels (%) of plants (the average of the damage levels (%) of plants=the injured leaf area/the total leaf area×[…]), i.e., the grade of pesticide damage: grade 0 means that the growth status of plants is essentially consistent with those sprayed with the blank solvent (water); grade 1 means that the average of the damage levels of plants is less than 10%; grade 2 means that the average of the damage levels of plants is greater than […]; and grade 3 means that the average of the damage levels of plants is 100%. The plants having a growth status falling within grades 0 and 1 are classified as highly resistant plants; those having a growth status falling within grade 2 are classified as poorly resistant plants; and those having a growth status falling within grade 3 are classified as non-resistant plants.

[2] = tested on: Arabidopsis thaliana T1 plants; assay: sulfentrazone tolerance of transgenic Arabidopsis thaliana T1 plants (spray, grade of pesticide damage)
Description: as §1

[3] = tested on: Arabidopsis thaliana T1 plants; assay: saflufenacil tolerance of transgenic Arabidopsis thaliana T1 plants (spray, grade of pesticide damage)
Description: as §1

[4] = tested on: Arabidopsis thaliana T1 plants; assay: flumioxazin tolerance of transgenic Arabidopsis thaliana T1 plants (spray, grade of pesticide damage)
Description: as §1

Molecule	The grade of pesticide damage/plant: grade 0 ([1]; oxyfluorfen 180 g ai/ha (1×))	The grade of pesticide damage/plant: grade 1 ([1]; oxyfluorfen 180 g ai/ha (1×))	The grade of pesticide damage/plant: grade 2 ([1]; oxyfluorfen 180 g ai/ha (1×))	The grade of pesticide damage/plant: grade 3 ([1]; oxyfluorfen 180 g ai/ha (1×))	The grade of pesticide damage/plant: grade 0 ([1]; oxyfluorfen 720 g ai/ha (4×))	The grade of pesticide damage/plant: grade 1 ([1]; oxyfluorfen 720 g ai/ha (4×))	The grade of pesticide damage/plant: grade 2 ([1]; oxyfluorfen 720 g ai/ha (4×))	The grade of pesticide damage/plant: grade 3 ([1]; oxyfluorfen 720 g ai/ha (4×))	The grade of pesticide: grade 0 ([2]; sulfentrazone 450 g ai/ha (1×))	The grade of pesticide: grade 1 ([2]; sulfentrazone 450 g ai/ha (1×))	The grade of pesticide: grade 2 ([2]; sulfentrazone 450 g ai/ha (1×))	The grade of pesticide: grade 3 ([2]; sulfentrazone 450 g ai/ha (1×))	The grade of pesticide: grade 0 ([2]; sulfentrazone 900 g ai/ha (2×))	The grade of pesticide: grade 1 ([2]; sulfentrazone 900 g ai/ha (2×))	The grade of pesticide: grade 2 ([2]; sulfentrazone 900 g ai/ha (2×))	The grade of pesticide: grade 3 ([2]; sulfentrazone 900 g ai/ha (2×))	The grade of pesticide damage/plant: grade 0 ([3]; saflufenacil 25 g ai/ha (1×))	The grade of pesticide damage/plant: grade 1 ([3]; saflufenacil 25 g ai/ha (1×))	The grade of pesticide damage/plant: grade 2 ([3]; saflufenacil 25 g ai/ha (1×))	The grade of pesticide damage/plant: grade 3 ([3]; saflufenacil 25 g ai/ha (1×))	also measured
PPO2A: nucleotide sequence encoding microbial protoporphyrinogen oxidase PPO2 (SEQ ID NO:2), Arabidopsis thaliana/soybean common codon usage bias (nucleic acid, PPO2A Nucleotide Sequence) DNA: ATGAGAGCCTTGCTTCTCTACAGCAGTCAAGAAGGGCAGACAAGAAAAATCATTCAGAGAATAGCAGCTCAAATGCCTGAGTACACTTGTGAAGTTCAAGATTTGCATCAATCAATAGATATTGATTGGGCCGAGTATGACAAAGTTTTAATTGGTGCATCCATCCGGTATGGACGTTTGAACCCTGCACTTTACAGGTTCATTGAGCATCACCTCGTTGGTTTGACCTCAAGGAAGGCTGCTTTCTTCTGCGTAAATCTTACCGCAAGGAAAGAACAACAAGGGAAAGACACTCCACAGGGCTCTGCATATATTCAAACATTTTTGAAGAAGAGTGCTTGGCAACCCGAAAGGATTGCTGTTTTTGCTGGTGCCCTTTATTATCCAAGATACAGATGGTTTGATAAGATGATGATCCGACTCATCATGACGTTAACTGGAGGAGAAACTGATACATCTCAGGAGGTGGAATATACAAACTGGGATAAAGTCGTGAAGTTTGCAGAGCAGTTTCGGAATTGGTGA	24 plant	0 plant	0 plant	0 plant	20 plant	4 plant	0 plant	0 plant	24	0	0	0	20	4	0	0	24 plant	0 plant	0 plant	0 plant	The grade of pesticide damage/plant: grade 0 ([3]; saflufenacil 100 g ai/ha (4×)): 6 plant; The grade of pesticide damage/plant: grade 1 ([3]; saflufenacil 100 g ai/ha (4×)): 18 plant; The grade of pesticide damage/plant: grade 2 ([3]; saflufenacil 100 g ai/ha (4×)): 0 plant; The grade of pesticide damage/plant: grade 3 ([3]; saflufenacil 100 g ai/ha (4×)): 0 plant; The grade of pesticide damage/plant: grade 0 ([4]; flumioxazin 60 g ai/ha (1×)): 24 plant; The grade of pesticide damage/plant: grade 1 ([4]; flumioxazin 60 g ai/ha (1×)): 0 plant; The grade of pesticide damage/plant: grade 2 ([4]; flumioxazin 60 g ai/ha (1×)): 0 plant; The grade of pesticide damage/plant: grade 3 ([4]; flumioxazin 60 g ai/ha (1×)): 0 plant; The grade of pesticide damage/plant: grade 0 ([4]; flumioxazin 240 g ai/ha (4×)): 24 plant; The grade of pesticide damage/plant: grade 1 ([4]; flumioxazin 240 g ai/ha (4×)): 0 plant; The grade of pesticide damage/plant: grade 2 ([4]; flumioxazin 240 g ai/ha (4×)): 0 plant; The grade of pesticide damage/plant: grade 3 ([4]; flumioxazin 240 g ai/ha (4×)): 0 plant
PPO3A: nucleotide sequence encoding microbial protoporphyrinogen oxidase PPO3 (SEQ ID NO:3), Arabidopsis thaliana/soybean common codon usage bias (nucleic acid, PPO3A Nucleotide Sequence) DNA: ATGAGTGCCCTGTTGTTGTATTGTTCAACTGATGGTCAAACCAAGAAGATAATGACACAGATAGCTAATGAACTGAGACAACATGGTTATGAATGTGATGTGCGGGATCTTACTTCTGTTCAACAAAATCTCAATCTTTCAGCTTACAACAAAGTTTTGGTAGGAGCTTCCATAAGATATGGATACTTCAATAAAGCACTTGACAAGTTCATCACGAGGCACCTCTCTCAGTTAAACAACATGCCTTCTGCTTTCTTTGGTGTCAATTTGACTGCAAGAAAAGAAGAGAAGAGCACTCCCGAAACAAACAGTTACATCTGCAAGTTTCTAGACAAAACACCATGGAAACCAACCTTAACTGGAGTCTTCGCCGGGGCGCTTTTTTATCCTCGTTACAAATGGATTGATCGAGTGATGATTCAGCTTATCATGAAGATGACTAAAGGAGAAACCGATCCGACAAAAGAGATTGAGTATACAGATTGGAACAAGGTTTCGGAGTTTGCTACGAATTTTGCAAAGATTGGCTGA	24 plant	0 plant	0 plant	0 plant	20 plant	4 plant	0 plant	0 plant	24	0	0	0	20	4	0	0	24 plant	0 plant	0 plant	0 plant	The grade of pesticide damage/plant: grade 0 ([3]; saflufenacil 100 g ai/ha (4×)): 2 plant; The grade of pesticide damage/plant: grade 1 ([3]; saflufenacil 100 g ai/ha (4×)): 22 plant; The grade of pesticide damage/plant: grade 2 ([3]; saflufenacil 100 g ai/ha (4×)): 0 plant; The grade of pesticide damage/plant: grade 3 ([3]; saflufenacil 100 g ai/ha (4×)): 0 plant; The grade of pesticide damage/plant: grade 0 ([4]; flumioxazin 60 g ai/ha (1×)): 24 plant; The grade of pesticide damage/plant: grade 1 ([4]; flumioxazin 60 g ai/ha (1×)): 0 plant; The grade of pesticide damage/plant: grade 2 ([4]; flumioxazin 60 g ai/ha (1×)): 0 plant; The grade of pesticide damage/plant: grade 3 ([4]; flumioxazin 60 g ai/ha (1×)): 0 plant; The grade of pesticide damage/plant: grade 0 ([4]; flumioxazin 240 g ai/ha (4×)): 24 plant; The grade of pesticide damage/plant: grade 1 ([4]; flumioxazin 240 g ai/ha (4×)): 0 plant; The grade of pesticide damage/plant: grade 2 ([4]; flumioxazin 240 g ai/ha (4×)): 0 plant; The grade of pesticide damage/plant: grade 3 ([4]; flumioxazin 240 g ai/ha (4×)): 0 plant
